# Assay results reported in the supplement of paper PMC10567573.
# ± gives the standard deviation.
# Assay: protein stability index of a GFP-peptide fusion (GPS, HEK-293T) (PSI 1-6); higher = more stable
# [1] = treatment: DMSO, c terminus: a fixed tail appended
# [2] = treatment: MLN4924 1 uM, 8 h, c terminus: a fixed tail appended
# 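Further: 24-mer peptide tiles fused after GFP, lentivirally expressed, FACS-sorted into six equal bins by GFP/DsRed ratio, decoded by Illumina sequencing, PSI is the read-weighted mean bin number.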
Sequence,protein stability index [1],protein stability index [2],"protein stability index (treatment: DMSO, c terminus: native)","protein stability index (treatment: MLN4924 1 uM, 8 h, c terminus: native)"
MEEVLLLGLKDKEGYTSFWNDCIS [GOLPH3L],2.29 ± 0.29,2.61 ± 0.27,,
TIGVEFATRSIQVDGKTIKAQIWD [RAB11A],3.04 ± 0.2,3.08 ± 0.32,,
APPPRDYTYRDYGHSSSRDDYPSR [RBMX],4.43 ± 0.21,4.32 ± 0.078,,
PELKSLAKTFHLVNPNGQKQQLVD [FAN1],4.05 ± 0.07,4.2 ± 0.22,,
KGFGFVTMTNYDEAAMAIASLNGY [ELAVL3],2.34 ± 0.13,2.37 ± 0.1,,
EPCQLPSESPGSLSEVLAQPQGAL [DNAAF3],5.16 ± 0.22,5.13 ± 0.39,,
WYTKSFGHLCAAEVVKIRDSFSNQ [DLC1],2.56 ± 0.78,2.09 ± 0.49,,
KNKKKKLKKKQKRQAELLEKRLQE [SRPK2],5.15 ± 0.42,5.06 ± 0.48,,
KVLGRLRALSDTTEELTVIKSSLK [SLC2A12],2.58 ± 0.25,2.76 ± 0.28,,
WELREKQQLAAEPVPTGFFNMWGF [WDR41],2.01 ± 0.11,2.37 ± 0.23,,
NLHSLALDFCDFTAEMARVLTDSN [FBXO33],1.84 ± 0.25,2.49 ± 0.61,,
YSIDQEFLKEYFPIEVVTEGLLNT [NLN],2.79 ± 0.24,3.19 ± 0.53,,
KVEFPEARIYEETLNILLYEAQDG [KCTD10],2.77 ± 0.15,2.94 ± 0.35,,
RYPVCKFPSLQVTAILIECGADVN [FEM1C],2.71 ± 0.72,2.65 ± 0.61,,
LQFDPAPRRGEPHVTRRTPDYFL [PPP2CA],,,4.16 ± 0.3,4.18 ± 0.18
MRDQYEQMAEKNRRDAETWFLSKT [KRT16],4.29 ± 0.089,4.31 ± 0.12,,
KNWVKELRQHGPPNIVVAIAGNKC [RAB22A],2.29 ± 0.23,2.47 ± 0.21,,
YYIRYRGAVYADSGNFERCIRLWK [FEM1A],2.59 ± 0.35,2.5 ± 0.57,,
MSGGPMGGRPGGRGAPAVQQNIPS [WAS],4.31 ± 0.35,4.62 ± 0.18,,
FSTSKWNHLLHHFVIGHLKGAPAS [FADS1],2.65 ± 0.67,2.17 ± 0.38,,
SSSRGSSHCDSPSPQEDGQIMFDV [BNIP3L],4.81 ± 0.26,4.91 ± 0.18,,
VGYQSQNISCFFRLVDRDSVWGYD [MYORG],2.34 ± 0.85,2.34 ± 0.17,,

Sequence,protein stability index [1],protein stability index [2],"protein stability index (treatment: DMSO, c terminus: native)","protein stability index (treatment: MLN4924 1 uM, 8 h, c terminus: native)"
LKLMVNVCGHTLCESCVDLLFVRG [MNAT1],3.35 ± 0.92,3.27 ± 0.44,,
CEPPSYRPMHHEDFKEDLKKFRTK [CDC25A],4.89 ± 0.31,4.93 ± 0.28,,
YSRRLQVQERLTKQIAVAITEALR [GCH1],2.34 ± 0.47,2.19 ± 0.38,,
KAQGHGAKGDNVYEFHLEFLDLVK [HACD3],2.37 ± 0.2,2.46 ± 0.14,,
QNTHLTRHQRTHTGEKPYQCNICG [ZNF263],4.01 ± 0.27,4.19 ± 0.32,,
TYLVSERLEREERNQTQVLRQQQD [FAF2],4.97 ± 0.21,4.89 ± 0.072,,
TDILPQMITLSEAYIQIWKRRDND [USP39],2.82 ± 0.25,2.79 ± 0.14,,
VLSSEQEFQMFPKSRLSSVSVTYC [ETS2],2.21 ± 0.28,2.23 ± 0.3,,
LCNEISLSEIKDAPKVNAVDTLNV [DLC1],3.77 ± 0.4,3.81 ± 0.25,,
VPQPRPPGARTRAGAARVARWRRL [FBXO33],4.39 ± 0.42,4.76 ± 0.21,,
ETKLHLLRQEMVNLRATDVRLMRQ [LURAP1L],2.96 ± 0.34,3.17 ± 0.16,,
CTDSVVKYELMRPSNKAPLLVLCE [EHMT1],2.02 ± 0.26,2.22 ± 0.24,,
IDSRARRNLGSINTELQDVQRIMV [SEC22B],2.8 ± 0.28,2.87 ± 0.29,,
QPWMVIEGIRQTEYTLTGLKFDMK [FSD1],2.29 ± 0.35,2.52 ± 0.49,,
LRERVKKVKRSLRQARKKGRHLEL [CCDC3],3.36 ± 0.39,3.58 ± 0.71,,
MLCSQPGLANSSRVRGRVGTIRPV [C22orf15],3.23 ± 0.27,3.37 ± 0.2,,
CVDLTITNLLEGAVAFMPEDITKG [AUP1],2.29 ± 0.2,2.57 ± 0.33,,
VGGFDGTTYLKTIEVFDPDANTWR [KLHL20],2.91 ± 0.12,2.92 ± 0.32,,
EAFRLKQQLHARYVLNLLYETKKH [PPEF2],2.5 ± 0.61,2.36 ± 0.33,,
DNILSLINVNDLSFVTGSHVGELI [WDR41],2.36 ± 0.32,2.63 ± 0.31,,
EHVFDLILELYNIDSHLLLSVLPQ [PDS5B],2.92 ± 0.47,2.85 ± 0.72,,
FTTSILRHWCMKHDELLAEHIKSL [INTS3],2.22 ± 0.2,2.17 ± 0.18,,
